{"source": "patent US20240294610A1", "about": "“PEPTIDE FOR TREATING AGE-RELATED MACULAR DEGENERATION” (DAIICHI SANKYO COMPANY, LIMITED, priority 2016, published 2024)", "key": {"HTRA1 (cat)": {"molecular_target": "T1, HTRA1 (cat) (Homo sapiens, UniProt Q92743)", "T1 construct": "The protease domain (158Gly to 373Lys), except for the N-terminal domain and the PDZ domain, of human HTRA1 (Q92743); made in house; host or cells: E. coli BL21 (DE3)", "T1 sequence (Q92743 158-373)": "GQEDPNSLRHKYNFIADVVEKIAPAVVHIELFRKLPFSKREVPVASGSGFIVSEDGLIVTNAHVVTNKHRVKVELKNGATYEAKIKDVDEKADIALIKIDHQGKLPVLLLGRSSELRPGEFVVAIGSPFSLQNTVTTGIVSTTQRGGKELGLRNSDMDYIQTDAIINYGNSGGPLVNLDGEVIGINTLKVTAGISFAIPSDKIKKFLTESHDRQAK", "experiment": "HTRA1 (cat) inhibitory activity using peptide substrate H2-Opt (Example 3-1)", "assay_type": "biochemical", "conditions": "method of (3-1); peptide 1.875 to 1,000 nM", "procedure": "The protease domain (158Gly to 373Lys), except for the N-terminal domain and the PDZ domain, of human HTRA1 (Q92743) was used as HTRA1 (cat) to construct a HTRA1 (cat) expression vector. The desired DNA fragment was amplified by PCR ((94° C. for 15 sec, 60° C. for 30 sec, and 68° C. for 45 sec)×30 cycles) with a human HTRA1-inserted plasmid (GeneCopoeia, Inc.; GC-M0558) as a template using the following primers and KOD-plus-(Toyobo Co., Ltd.).\nA substrate peptide H2-Opt (Mca-IRRVSYSFK(Dnp)K) (Peptide Institute, Inc.: SEQ ID NO: 54, FIG. 8) was dissolved at 10 mM in DMSO, diluted with an assay buffer (50 mM borate and 150 mM NaCl, pH 8.5), and used at a final concentration of 10 μM. HTRA1 (HTRA1 (cat) or HTRA1 (full)) and each HTRA1-inhibiting peptide diluted with an assay buffer were mixed at 25 μL each and reacted at 37° C. for 20 minutes. Then, 50 μL of the substrate diluted with an assay buffer was added thereto. A fluorescent signal (excitation at 328 nm/emission at 393 nm) was measured using Enspire (PerkinElmer, Inc.). […]\nThe substrate peptide decomposition rate of the HTRA1-inhibiting peptide at each concentration was calculated. When the decomposition rate at an inhibitor concentration of 0 nM was defined as 100%, the HTRA1 (cat) and HTRA1 (full) inhibitory activity of each HTRA1-inhibiting peptide was evaluated (FIGS. 2 and 3)."}, "ARPE-19 cells": {"system": "ARPE-19 cells", "experiment": "VEGF mRNA induction test using human retinal pigment epithelial cell ARPE-19", "assay_type": "cell-based", "conditions": "H2O2 500 μM, normal human serum complement 25%, HTRA1 1 μM, peptide 1 μM, 4 hours", "procedure": "ARPE-19 cells were cultured until confluent in 12 mm Transwell with 0.4 μm Pore Polyester Membrane Insert, Sterile (Corning Inc.) under conditions of 37° C. and 5% CO2 using a DMEM/F-12 medium (Wako Pure Chemical Industries, Ltd.) containing 10% fetal bovine serum (FBS) and penicillin-streptomycin (Thermo Fisher Scientific Inc.). Then, the cells were cultured in FBS-free DMEM/F-12 for 5 days. H2O2 (final concentration: 500 μM) was added to the upper and lower layers of the chamber, and normal human serum complement (Quidel Corp.) (final concentration: 25%) was added to the upper layer of the chamber. […] Four hours later, the culture supernatant was removed, and the cells were washed with PBS. Then, mRNA was extracted using SuperPrep™ Cell Lysis & RT Kit for qPCR (Toyobo Co., Ltd.) and subjected to reverse transcription reaction. The mRNA level of VEGF was quantitatively analyzed by TaqMan Gene Expression Assays (Hs000900055_m1 and Hs02786624_g1; Thermo Fisher Scientific Inc.) using 7900HT Fast Real-Time PCR System (Applied Biosystems, Inc.). GAPDH was used in the correction of the mRNA level."}, "[1]": {"system": "human umbilical vein endothelial cells (HUVEC)", "experiment": "HUVEC migration test", "assay_type": "cell-based", "conditions": "300 nM peptide in EGM growth medium; 2 hours", "procedure": "HUVEC (Kurabo Industries Ltd.) was cultured for 18 hours under conditions of 37° C. and 5% CO2 in a medium (0.1% BSA-containing serum-free EGM) in which EBM™-2 basal medium (Lonza Walkersville, Inc.) containing 0.1% BSA was supplemented with EGM™-2 SingleQuots™ additive factor set except for serum and VEGF. Then, the cells were adjusted to 4×10^5 cells/mL with 0.1% BSA-containing serum-free EGM. 4×10^5 cells/mL of the HUVEC suspension was added at 50 μL/well to the upper layer of a chamber of Corning FluoroBlok HTS 96 Well Multiwell Permeable Support System with 3.0 μm High Density PET Membrane (Corning Inc.) having a gelatin-coated membrane. Then, each sample described below (medium 1, 2 or 3) was added at 210 μL/well to the lower layer of the chamber (n=3). […]\nFluoroBlok HTS 96 Well Multiwell Support System supplemented with the cells and the sample was incubated for 2 hours under conditions of 37° C. and 5% CO2. […] The fluorescence intensity (excitation wavelength/fluorescence wavelength: 485 nm/535 nm) of each well was measured using a plate reader (ARVO-MX, PerkinElmer, Inc.), and the migrated cells were counted for each well according to the following expression.\nMigrated cells=Mean fluorescence intensity of wells containing HUVEC (n=3)−Mean fluorescence intensity of blank wells (n=3)."}, "[2]": {"system": "retinal damage induced by light exposure", "experiment": "Rat model of retinal damage induced by light exposure", "assay_type": "in vivo", "procedure": "Rat models of retinal damage induced by light exposure are models that induce the cell death of retinal photoreceptor cells by light exposure and are universally used as model animals of retinal degeneration (Daniel T. Organisciak et al., (1996) Invest Ophthalmol Vis Sci. Vol. 37 (No. 11): p. 2243-2257). A 0.5% (W/V) tropicamide-0.5% phenylephrine hydrochloride ophthalmic solution was ocularly instilled under adaptation to darkness to rats adapted to darkness for 72 hours. Then, the rats were exposed to white light of 5500 Lux for 3 hours. The rats thus exposed were adapted again to darkness for about 24 hours and then raised for 2 days under light-dark conditions of ordinary raising. After euthanasia, the eyeballs were excised and fixed by dipping in a 3.7% (W/V) formaldehyde-0.5 to 1% (W/V) methanol-0.2% (W/V) picric acid fixative for 24 hours or longer. After paraffin embedding, thin sliced sections were prepared. The sections were stained with hematoxylin-eosin, and a nucleus count in an outer nuclear layer at the cross-section of the retina was determined to evaluate retinal damage. […] Immediately before light exposure of rats, 5 micro L of HTRA1-inhibiting peptide […] having a concentration of 0.04 mg/mL or 0.2 mg/mL was intravitreally administered under anesthesia. n=4 for a normal saline administration group, and n=5 for the other groups. […] The retinal protective effects of three HTRA1-inhibiting peptides prepared in Example 6 were evaluated using the rat models of retinal damage induced by light exposure, constructed in Example (5-1). The operation followed Example 5. n=6 for all groups."}, "RPE cells": {"system": "RPE cells", "experiment": "Rabbit retinal damage model by loading with high-fat diet containing hydroquinone (HFD-HQ)", "assay_type": "in vivo", "conditions": "HFD-HQ-loaded 3-year-old rabbits; 50 μL of 40 mg/mL intravitreally after 2 months of feeding; evaluated after 4 months", "text": "Retinal damage models prepared using high-fat diet (HFD) and hydroquinone (HQ) are models in which oxidative stress is induced by a pro-oxidant to cause retinal damage. These models have been reported only for mice (Diego G. Espinosa-Heidmann et al., (2006) Invest Ophthalmol Vis Sci., Vol. 47 (No. 2): p. 729-737). Accordingly, 3-year-old JW rabbits were fed for 4 months with RC4 (Oriental Yeast Co., Ltd.) diet containing 1.5% (W/V) coconut oil-0.25% (W/V) cholesterol-1.5% (W/V) peanut oil-2.4% (W/V) hydroquinone (HFD-HQ) to construct rabbit retinal damage models. After euthanasia, the eyeballs were excised, and the anterior segment of the eye was removed by an external incision of about 5 mm from the corneal limbus. The vitreous body was further separated. Then, retina-choroid-sclera was fixed by dipping in 4% (W/V) paraformaldehyde fixative for 24 hours or longer. […] The stained choroid was observed under a fluorescence microscope (BZ-9000; Keyence Corp.). The area of stained retinal pigment epithelial (RPE) cells was determined to evaluate RPE cell damage.\nThe retinal protective effect of the HTRA1-inhibiting peptide H308 prepared in Example 1 was evaluated using the rabbit models. […]\nAfter 4 months from the start of feeding, RPE cell hypertrophy in the model animals was evaluated. […]"}}}
{"molecule": "wild-type SPINK2: human serine protease inhibitor Kazal-type 2, control, amino acid sequence SEQ ID NO: 1 (FIG. 13) (protein, listed as Homo sapiens) DPQFGLFSKYRTPNCSQYRLPGCPRHFNPVCGSDMSTYANECTLCMKIREGGHNIKIIRNGPC", "values": [{"measurement": "HTRA1 (cat) inhibitory activity (decomposition rate of peptide substrate)", "setting": "HTRA1 (cat)", "value": "no HTRA1 inhibitory activity"}]}
{"molecule": "H308_D1G_S16A: H308 derivative, 1Asp substituted by Gly and 16Ser by Ala, SEQ ID NO: 24 (FIG. 36) (protein, peptide H308_D1G_S16A) GPQFGLFSKYRTPNCADHAGMACVALYEPVCGSDMSTYENECVLCMKIREGGHNIKIIRNGPCGG", "values": [{"measurement": "expression of VEGF mRNA", "setting": "ARPE-19 cells", "value": "confirmed to suppress the expression of VEGF"}, {"measurement": "migration of HUVEC induced in the serum-containing medium", "setting": "[1]", "value": "suppressive effect on the migration of HUVEC"}, {"measurement": "nucleus count in an outer nuclear layer at the cross-section of the retina", "setting": "[2]; 0.2 and 1 μg/eye, n=6", "value": "suppressed decrease in nucleus count in an outer nuclear layer"}]}
{"molecule": "H308: SPINK2 mutant HTRA1-inhibiting peptide, amino acid sequence SEQ ID NO: 9 (FIG. 21) (protein, peptide H308) DPQFGLFSKYRTPNCSDHAGMACVALYEPVCGSDMSTYENECVLCMKIREGGHNIKIIRNGPCGG", "values": [{"measurement": "hypertrophy of RPE cells, average area", "setting": "RPE cells", "value": "exhibited a suppressive effect on the hypertrophy of RPE cells"}, {"measurement": "hypertrophy of RPE cells, number of RPE cells having a cell area of 1500 μm^2 or larger", "setting": "RPE cells", "value": "exhibited a suppressive effect on the hypertrophy of RPE cells"}, {"measurement": "nucleus count in an outer nuclear layer at the cross-section of the retina", "setting": "[2]; 5 micro L of 0.04 mg/mL or 0.2 mg/mL intravitreally immediately before light exposure", "value": "effect of suppressing decrease in nucleus count in an outer nuclear layer was confirmed"}]}
{"molecule": "H321AT_D1G_S16A: peptide derivative, amino acid sequence SEQ ID NO: 28 (FIG. 40) (protein, peptide H321AT_D1G_S16A) GPQFGLFSKYRTPNCADFDGMACYAFYEPVCGSDMSTYANECTLCMKIREGGHNIKIIRNGPCGG", "values": [{"measurement": "nucleus count in an outer nuclear layer at the cross-section of the retina", "setting": "[2]; 0.2 and 1 μg/eye, n=6", "value": "suppressed decrease in nucleus count in an outer nuclear layer"}]}
{"molecule": "H322AT_D1G_S16A: peptide derivative, amino acid sequence SEQ ID NO: 29 (FIG. 41) (protein, peptide H322AT_D1G_S16A) GPQFGLFSKYRTPNCAQHEGMACYALYEPVCGSDMSTYANECTLCMKIREGGHNIKIIRNGPCGG", "values": [{"measurement": "nucleus count in an outer nuclear layer at the cross-section of the retina", "setting": "[2]; 0.2 and 1 μg/eye, n=6", "value": "suppressed decrease in nucleus count in an outer nuclear layer"}]}
